These results are taken from patent US20250304666A1 (ALCHEMAB THERAPEUTICS, published 2025).

Positions count from the first letter of the chain named.

What is called Kd is the equilibrium constant for the complex coming apart. Read a low Kd as higher affinity. What is called koff is a measure of how fast the partners let go of each other. What is called kon is the second-order rate constant of association. Lower therefore signals slow association.

The target of one assay is T1, reduced CFHR3 (UniProt Q02985 19-330, limits assumed).
T1 sequence (looked up): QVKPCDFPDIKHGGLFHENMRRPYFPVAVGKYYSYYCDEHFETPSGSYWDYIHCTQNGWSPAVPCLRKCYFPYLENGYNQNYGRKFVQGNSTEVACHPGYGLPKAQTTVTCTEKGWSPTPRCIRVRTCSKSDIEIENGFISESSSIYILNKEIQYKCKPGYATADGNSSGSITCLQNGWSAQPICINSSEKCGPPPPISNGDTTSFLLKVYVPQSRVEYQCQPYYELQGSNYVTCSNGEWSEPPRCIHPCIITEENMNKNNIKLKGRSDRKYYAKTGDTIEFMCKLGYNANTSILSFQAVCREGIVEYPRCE
Description: ELISA, reduced antigen. A general note: ELISA stands for enzyme-linked immunosorbent assay.

The target of another assay is T2, reduced CFHR5 (UniProt Q9BXR6 19-569, limits assumed).
T2 sequence (looked up): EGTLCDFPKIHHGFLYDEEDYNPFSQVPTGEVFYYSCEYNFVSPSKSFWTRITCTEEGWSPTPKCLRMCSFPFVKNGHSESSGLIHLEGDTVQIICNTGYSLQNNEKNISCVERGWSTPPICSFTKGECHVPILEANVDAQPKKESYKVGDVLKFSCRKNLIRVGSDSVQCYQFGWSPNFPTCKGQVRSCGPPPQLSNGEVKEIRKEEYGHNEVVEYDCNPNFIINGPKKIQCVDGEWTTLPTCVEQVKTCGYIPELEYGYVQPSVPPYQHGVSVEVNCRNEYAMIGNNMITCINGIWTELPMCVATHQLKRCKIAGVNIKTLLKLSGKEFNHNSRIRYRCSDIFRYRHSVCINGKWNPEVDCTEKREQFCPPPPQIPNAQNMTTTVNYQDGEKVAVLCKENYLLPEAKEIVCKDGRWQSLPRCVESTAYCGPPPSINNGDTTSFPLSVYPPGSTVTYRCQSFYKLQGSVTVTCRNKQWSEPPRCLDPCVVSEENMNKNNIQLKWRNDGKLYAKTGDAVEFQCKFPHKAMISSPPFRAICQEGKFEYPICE
As to the kind of experiment: ELISA, reduced antigen.

Assay [1] addresses T3, reduced CFH (Homo sapiens (Human), UniProt P08603 860-1231, limits assumed).
T3 construct: also called CFH (reduced)
T3 sequence: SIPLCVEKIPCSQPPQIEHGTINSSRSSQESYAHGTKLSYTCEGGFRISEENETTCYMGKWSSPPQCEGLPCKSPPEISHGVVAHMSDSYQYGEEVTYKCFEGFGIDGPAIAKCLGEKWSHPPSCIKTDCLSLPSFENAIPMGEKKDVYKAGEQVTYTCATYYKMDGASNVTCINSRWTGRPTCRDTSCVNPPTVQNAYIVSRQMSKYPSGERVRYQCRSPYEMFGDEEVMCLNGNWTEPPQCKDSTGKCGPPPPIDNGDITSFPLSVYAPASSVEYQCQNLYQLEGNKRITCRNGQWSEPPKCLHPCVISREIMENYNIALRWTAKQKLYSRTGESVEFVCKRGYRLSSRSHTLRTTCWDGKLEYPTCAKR
As to the kind of experiment: ELISA, reduced antigen.

In assay [2] the target is T3, reduced CFH. As to the kind of experiment: ELISA on reduced CFH after heating the mAb (70 C, 1 h, as Figure 16).
Assay [3] has as its target T4, immobilised biotinylated full-length CFH (reduced) (Homo sapiens (Human), UniProt P08603 19-1231, biotinylated; reduced with 20 mM dithiothreitol).
T4 construct: Purified endogenous full-length CFH immobilised by biotin on streptavidin BLI sensors; also called immobilised CFH; surface immobilised CFH
As to the kind of experiment: BLI, biotinylated reduced full-length CFH on streptavidin tips, 1:1 global fit. The procedure:
Biolayer interferometry (BLI, Octet 96Red) was used to measure binding kinetics of the interactions between anti-CFH antibodies and CFH. The CFH used for kinetics measurements was purified endogenous CFH was biotinylated and reduced with 20 mM dithiothreitol (DTT). An irrelevant protein was treated in the same way as a negative control reference. The CFH or irrelevant control ligands were each immobilised via the conjugated biotin onto a set of streptavidin (SA) sensor tips. Sensors were dipped into reference kinetics buffer (Phosphate buffered saline (PBS), pH 7.4, 0.05% Tween-20, 2% w/v not fat milk powder) to achieve a steady baseline. Association was measured over 300 s by dipping the sensors into an analyte concentration series of anti-CFH antibody (33.3-2.08 nM in kinetics buffer) as well as a no analyte control (kinetics buffer only). Dissociation was measured over 1500 s by dipping the sensors into kinetics buffer only. Baseline, association and dissociation steps were all measured with sensors shaking at 800 rpm and at a temperature of 23° C. Data was analysed with Data Analysis HT 11.1.0.25 software. Data from reference sensors and analyte control were subtracted. Data was corrected by aligning y-axis to average of baseline 5 s before association, inter step correction aligned to start of baseline and using Savitzky-Golay filtering. Data was fit to a 1:1 model using association and dissociation phases and kinetic rate constants are reported for the global fit where each curve R2 is >0.9.
Background: BLI is a label-free optical method that tracks binding on a fibre tip over time.

B1: ATL4717 (antibody, human IgG1, kappa, V domains shown)
VH: QVQLVESGGGMVQPGRSLRLSCAASGFTFSIYGMHWVRQAPGRGLEWVAVMSFDGKTKYYADSVKGRFTISRDNSKNTLYLQMNSLRRVDTAVYYCAKGGATAAVFDSWGQGTLVTVSS
VL: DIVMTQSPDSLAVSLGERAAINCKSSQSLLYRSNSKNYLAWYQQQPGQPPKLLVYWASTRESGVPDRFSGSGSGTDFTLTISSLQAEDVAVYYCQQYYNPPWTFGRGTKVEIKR
notes: Human IgG1; also called ATL0004717; ATL04717
In the case of B1, the binding result in the assay with reduced CFHR3 and with reduced CFHR5 was “no binding (tested: 1 ug/ml)” each time. Further, the results for the “fold change vs isotype at 1 ug/ml” value with reduced CFHR3, in the assay with reduced CFHR5 and with reduced CFH [1] were 0.9 fold, 1 fold and 17.6 fold, respectively. Also, the “Harsh Heat challenge ELISA value” in the assay with reduced CFH [2] was 0.04.

B2: ATL5170 (antibody, human IgG1, kappa, V domains shown)
VH: B1 VH with M11V, I31N, R43K, M51T, R88A, V89E, F106L
VL: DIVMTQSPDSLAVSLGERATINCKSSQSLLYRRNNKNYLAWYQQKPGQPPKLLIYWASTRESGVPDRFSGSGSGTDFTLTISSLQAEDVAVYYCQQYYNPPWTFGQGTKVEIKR
notes: IgG1; also called ATL_0005170
With B2, the “fold change vs isotype at 1 ug/ml” value in the assay with reduced CFHR3 stood at 1 fold. Besides, the “fold change vs isotype at 1 ug/ml” value in the assay with reduced CFHR5 was found to be 1.1 fold. The “fold change vs isotype at 1 ug/ml” value with reduced CFH [1] stood at 18.1 fold. For the same molecule, the “Harsh Heat challenge ELISA value” with reduced CFH [2] is 0.49. In assay [3], this molecule had a dissociation constant (Kd) of 0.85 nM, an off-rate (koff) of 0.000348 s⁻¹ and a kon of 409000 M⁻¹ s⁻¹.
